# Measured values reported in patent US20110257076A1 (INDIANA UNIVERSITY RESEARCH AND TECHNOLOGY, published 2011).
# Ends that are not written are not given here.
# How the values were obtained:
# human IGF-1 receptor [1] = target: T1, human IGF-1 receptor (human, UniProt P08069 31-1367); test: cell-based or functional assay; parameters: EC50, total phosphorylation, Insulin Receptor (Mar. 31, 2008): unit not given beside the values
# human insulin receptor [2] = target: T2, human insulin receptor (human, UniProt P06213 28-1382); test: SPA competition vs [125I]-insulin, membranes with human insulin receptor (Example 3); Jun. 5, 2008
# T2 construct: whole, on cells
# Protocol: (§1) Non-specifically bound (NSB) radioactivity was measured in the wells with a four-fold concentration excess of “cold” native ligand than the highest concentration in test samples. Total bound radioactivity was detected in the wells with no competitor. Percent specific binding was calculated as following: % Specific Binding=(Bound-NSB/Total bound-NSB)×100. IC50 values were determined by using Origin software (OriginLab, Northampton, Mass.).
# human insulin receptor [3] = target: T2, human insulin receptor; test: SPA competition vs [125I]-insulin, membranes with human insulin receptor (Example 3); Dec. 4, 2007
# Protocol: as §1
# human insulin receptor [4] = target: T2, human insulin receptor; test: cell-based or functional assay; parameters: EC50, total phosphorylation, Insulin Receptor (Mar. 31, 2008): unit not given beside the values
# human insulin receptor [5] = target: T2, human insulin receptor; test: SPA competition vs [125I]-insulin, membranes with human insulin receptor (Example 3); Nov. 9, 2007
# Protocol: as §1
# human IGF-1 receptor [6] = target: T1, human IGF-1 receptor; test: SPA competition vs [125I]-IGF-1, membranes with human IGF-1 receptor (Example 3); Jun. 4, 2007
# Protocol: as §1
# human insulin receptor [7] = target: T2, human insulin receptor; test: SPA competition vs [125I]-insulin, membranes with human insulin receptor (Example 3); May 29, 2007
# Protocol: as §1
# human IGF-1 receptor [8] = target: T1, human IGF-1 receptor; test: SPA competition vs [125I]-IGF-1, membranes with human IGF-1 receptor (Example 3); Sep. 18, 2007
# Protocol: as §1
# human insulin receptor [9] = target: T2, human insulin receptor; test: SPA competition vs [125I]-insulin, membranes with human insulin receptor (Example 3); May 22, 2007
# Protocol: as §1
# human insulin receptor [10] = target: T2, human insulin receptor; test: SPA competition vs [125I]-insulin, membranes with human insulin receptor (Example 3); May 18, 2007
# Protocol: as §1
binder,measurement,setting,value
"IGF-1 A:B (H5D10Y16L17) DPI (ligand, disulfide (positions not given here); not fully specified (bridges)) chain 1: GIVDECCFRSCDLRRLEMYCA-NH2 chain 2: GPEHLCGADLVDALYLVCGDRGFY-NH2","% IGF, total phosphorylation, IGF-1 Receptor",human IGF-1 receptor [1],7.1%
"IGF-1 A (H8 A9 N21):B(H5D10Y16L17 A22) DPI A-COOH (ligand, disulfide (positions not given here); not fully specified (bridges)) chain 1: GIVDECCHASCDLRRLEMYCN-OH chain 2: GPEHLCGADLVDALYLVCGDAGFY-NH2","% IGF, total phosphorylation, IGF-1 Receptor",human IGF-1 receptor [1],7.7%
"IGF-1 A:B(D10Y16L17) DPI A-COOH (ligand, disulfide (positions not given here); not fully specified (bridges)) chain 1: GIVDECCFRSCDLRRLEMYCA-OH chain 2: GPETLCGADLVDALYLVCGDRGFY-NH2",% native insulin activity (0.6 nM),human insulin receptor [2],144%
same,% native insulin activity (0.6 nM),human insulin receptor [3],300%
same,"% Insulin, total phosphorylation, Insulin Receptor",human insulin receptor [4],1580%
same,"% IGF, total phosphorylation, IGF-1 Receptor",human IGF-1 receptor [1],112%
same,% native insulin activity (0.6 nM),human insulin receptor [5],231%
"IGF-1 A (H8 A9 N21):B(H5D10Y16L17) DPI A-COOH (ligand, disulfide (positions not given here); not fully specified (bridges)) chain 1: GIVDECCHASCDLRRLEMYCN-OH chain 2: GPEHLCGADLVDALYLVCGDRGFY-NH2","% IGF, total phosphorylation, IGF-1 Receptor",human IGF-1 receptor [1],181%
"IGF-1 A:B(E10 Y16L17)-E31E32 B-COOH (ligand, disulfide (positions not given here); not fully specified (bridges)) chain 1: GIVDECCFRSCDLRRLEMYCA-NH2 chain 2: GPETLCGAELVDALYLVCGDRGFYFNKPTEE-OH","EC50, total phosphorylation, Insulin Receptor (Mar. 31, 2008)",human insulin receptor [4],7
"IGF-1 A:B(E10Y16L17) (ligand, disulfide (positions not given here); not fully specified (bridges)) chain 1: GIVDECCFRSCDLRRLEMYCA-NH2 chain 2: GPETLCGAELVDALYLVCGDRGFYFNKPT-NH2",% IGF-1 (in test),human IGF-1 receptor [6],6.8%
same,% native IGF-1 activity (0.55 nM),human IGF-1 receptor [6],7%
same,% native insulin activity (0.6 nM),human insulin receptor [7],118%
same,% IGF-1 (in test),human IGF-1 receptor [8],5%
same,% native IGF-1 activity (0.55 nM),human IGF-1 receptor [8],4.5%
same,"% Insulin, total phosphorylation, Insulin Receptor",human insulin receptor [4],49.2%
same,"EC50, total phosphorylation, Insulin Receptor (Mar. 31, 2008)",human insulin receptor [4],2.57
same,"% IGF, total phosphorylation, IGF-1 Receptor",human IGF-1 receptor [1],13%
same,% insulin (in test),human insulin receptor [9],58.7%
same,% native insulin activity (0.6 nM),human insulin receptor [9],90.9%
"IGF-1 A:In (1-17)-IGF-1 B (18-30) (ligand, disulfide (positions not given here); not fully specified (bridges), The B chain is a chimera; The conversion is mine) chain 1: GIVDECCFRSCDLRRLEMYCA-NH2 chain 2: FVNQHLCGSHLVEALYLVCGDRGFYFNKPT-NH2",% native insulin activity (0.6 nM),human insulin receptor [7],24.2%
same,% native insulin activity (0.6 nM),human insulin receptor [10],22.5%
same,% insulin (in test),human insulin receptor [9],14%
same,% native insulin activity (0.6 nM),human insulin receptor [9],21.7%
